The record followed here is publication PMC6749330, “Novel Peptide NIRF Optical Surgical Navigation Agents for HNSCC” (Molecules, 2019).

Where a SMILES comes first, the peptide text is derived from it. The star is where a group is joined. IRDye800CW = CC1(C)C(/C=C/C2=C(Oc3ccc(S(=O)(=O)O)cc3)C(=C/C=C3/N(CCCCS(=O)(=O)O)c4ccc(S(=O)(=O)O)cc4C3(C)C)/CCC2)=[N+](CCCCCC(=O)*)c2ccc(S(=O)(=O)[O-])cc21

One data set concerns Cal 27 cells. Put plainly: Fluorescence microscopy assay on Cal 27 cells. The class given is cell-based, Human. As to conditions: 10 μM, 1 h and 24 h incubations, 37 °C, 800 nm emission. The procedure:
Fluorescence microscopy assays. Cal 27 cells were seeded at 70,000/well in duplicate on eight-well chamber slides and allowed to attach overnight. Cell culture medium was replaced with 200 μL medium containing 10 μM peptides. Cells were incubated at 37 °C for 1–24 h followed by washing four times with 300 μL of HEPES buffer (25 mM HEPES 150 mM NaCl at pH 7.4) and once with the buffer containing 1 μg/mL DAPI. The chamber slide scaffold was then removed. Each chamber was then covered by a drop of aqua-poly mount and a coverslip, and sealed with clear nail polish. Cells were imaged with an Olympus IX81 microscope using an 800 nm emission filter set for IRDye800 conjugates and 461 nm for DAPI. Images were captured at 800 nm (red) for 5 s and at 461 nm (blue) with the automatic settings, at 200×. […]
the measured fluorescence.
The ratio of uptake at 2 h drops to about 13. Note:
Figure 2 data are normalized to fHN-1-IR800 that was run adjacent to each of the hybrid-peptides. f-HN1- […]
vertical scale magnitude of 4IphfHN17-IR800 between Figure 2 at ~4.5 and Figure S3 at ~13.
Figure S4.Fluorescence microscopy of 1 h and 24 h incubations of 10 µM IR800-labeled hybrid-peptides in […]
Cal 27 cells. […] HN1-IR800, HNJ-
Figure S5. Blood clearance of hybrid-peptide molecules from normal mice as described in Materials and Methods. […]

The next data set can be described thus: In vitro serum stability. The settings on record: nu/nu, mouse.
In data set [1] the test system is FBS (fetal bovine serum) proteins. Put plainly: FBS protein binding assay. As to conditions: 25 μM in 100% FBS, room temperature 30 s, Amicon 10 K cutoff, 12,000 g 15 min, fluorescence, p < 0.05.
Protocol: FBS protein binding assay. […] The concentration was chosen as the maximum expected in blood from an intravenous imaging dose of 40 nmol in a 20 g mouse, with a blood factor of 0.078 [40, 41]. Solutions (300 μL) were then loaded into an Amicon unit (0.5 mL, 10 K cutoff) and centrifuged at 12,000× g for 15 min [28]. Samples from the filtrate (50 μL), residual (5 μL), and original solution (5 μL) were loaded in duplicate into black wall 96-well plates containing 50 (for filtrate) or 95 (for residual and original) μL of PBS with 0.2% BSA. For an additional wash, 300 μL of PBS was then added into the Amicon unit. The unit was centrifuged as above. The same amounts of each of the parts were loaded into wells. Fluorescence intensity for each fraction was calculated by fraction volume × fluorescent unit/μL. Single factor ANOVA was used to analyze the data with p < 0.05 considered significant.
A short description of data set [2]: HPLC Rt as measure of relative lipophilicity. The settings on record: chromatographic, C18 RP (XBridge 150 × 4.6 mm, 3.5 μm), water/ACN 0.1% TFA, 20 to 50% ACN up to 10 min, 50 to 70% from 10 to 30 min, 1 mL/min, NIRF detection.

Turning to `CC1(C)C(/C=C/C2=C(Oc3ccc(S(=O)(=O)O)cc3)C(=C/C=C3/N(CCCCS(=O)(=O)O)c4ccc(S(=O)(=O)[O-])cc4C3(C)C)/CCC2)=[N+](CCCCCC(=O)O)c2ccc(S(=O)(=O)O)cc21` [IR800-COOH], the “Uptake in Cal 27 cells by fluorescence microscopy” value in the data set with Cal 27 cells is on record as “not observably taken up”.
For orientation: half-life means the time in which the quantity being followed falls by half. Higher therefore signals slow loss. In the case of `CC[C@H](C)[C@H](NC(=O)[C@H](CC(N)=O)NC(=O)[C@H](CC(C)C)NC(=O)[C@@H]1CCCN1C(=O)[C@H](CO)NC(=O)[C@@H](N)[C@@H](C)O)C(=O)N[C@@H](Cc1c[nH]cn1)C(=O)N[C@@H](CC(N)=O)C(=O)NCC(=O)N[C@@H](CCC(N)=O)C(=O)N[C@@H](CCCCNC(=O)CCCCC[N+]1=C(/C=C/C2=C(Oc3ccc(S(=O)(=O)O)cc3)C(=C/C=C3/N(CCCCS(=O)(=O)O)c4ccc(S(=O)(=O)O)cc4C3(C)C)/CCC2)C(C)(C)c2cc(S(=O)(=O)[O-])ccc21)C(=O)N[C@@H](CC(C)C)C(N)=O` [HN1-IR800] (H-TSPLNIHNGQK(IRDye800CW)L-NH2), in “In vitro serum stability”, the half-life at 6.4 μM was 50.4 min. Moreover, the “peptide bound to FBS proteins” value in data set [1] is about 52%. The “HPLC Rt (relative lipophilicity)” value in data set [2] amounted to 7.31 min.
